# Assay results from US20060035283A1 (CHILDREN S MEDICAL CENTER, published 2006).
# B1: full-length mouse RasGRF1 (other, UniProt P27671 1-1262, looked up)
# chain: MQKAIRLNDGHVVTLGLLAQKDGTRKGYLSKRSADNPKWQTKWFALLQNLLFYFESDSSPRPSGLYLLEGSICKRAPSPKRGTSSKESGEKQQHYFTVNFSNDSQKTLELRTEDAKDCDEWVAAIARASYKILATEHEALMQKYLHLLQVVETEKTVAKQLRQQLEDGEVEIERLKTEVTITNLIKDNDRIQSSNKAGSADDEDSDIKKIKKVQSFLRGWLCRRKWKNIIQDYIRSPHADSMRKRNQVVFSMLEAEAEYVQQLHILVNNFLRPLRMAASSKKPPITHDDVSSIFLNSETIMFLHQIFYQGLKARISSWPTLVLADLFDILLPMLNIYQEFVRNHQYSLQILAHCKQNRDFDKLLKQYEAKPDCEERTLETFLTYPMFQIPRYILTLHELLAHTPHEHVERNSLDYAKSKLEELSRIMHDEVSETENIRKNLAIERMITEGCEILLDTSQTFVRQGSLMQMSLSEKSKSSRGRLGSLSTKKEGERQCFLFSKHLIICTRGSGGKLHLTKNGVISLIDCTLLDEPENLDDEAKGAGPEIEHLEFKIGVEPKDSLPFTVILVASTRQEKAAWTSDIIQCVDNIRCNGLMMNAFEENSKVTVPQMIKSDASLYCDDVDIRFSKTMNSCKVLQIRYASVERLLERLTDLRFLSIDFLNTFLHSYRVFTNAMVVLDKLINIYRKPMSAIPARSLELLFSSSHNAKLLYGDAPKSPRASRKFSSPPPLAIGTSSPSRRRKLSLNIPIITGGKALELASLGCSSDSYANIHSPISPFGKTTLDTGKLCMASSLPKTPEEIDVPATIPEKPGELSASRKHSSDVLKEESEDDQNHSDEDNTEVSPVKSPPTPKSFLNRTITEFPFFNYNNGILMTTCRDLVDNNRSTLSATSAFAIATAGANEGPSNKEVFRRMSLANTGFSSDQRNIDKEFVIRRAATNRVLNVLRHWVTKHTQDFDTDDTLKYRVICFLEEVMHDPDLLTQERKAAANIIRTLTLEETTEQHSMLEEVILMTEGVKTEPFENHPALEIAEQLTLLDHLVFKSIPYEEFFGQGWMKAEKYERTPYIMKTTKHFNHVSNFIASEIIRNEDISARASAIEKWVAVADICRCLHNYNAVLEITSSINRSAIFRLKKTWLKVSKQTKSLLDKLQKLVSSDGRFKNLRESLRNCDPPCVPYLGMYLTDLVFIEEGTPNYTEDGLVNFSKMRMISHIIREIRQFQQTTYKIDPQPKVIQYLLDESFMLDEESLYESSLLIEPKLPT
# notes: Full-length; also called in vitro translated RasGRF1; mouse RasGRF1 in pcDNA3
# What was measured:
# [1] = target: T1, in vitro translated full-length NR2B (Rattus norvegicus (Rat), UniProt Q00960 1-1482, limits assumed); assay: co-immunoprecipitation of in vitro translated proteins with anti-HA
# T1 construct: Full-length, 35S-labelled, translated in vitro
# T1 sequence (Q00960 other isoform, or with tags, fused parts or gaps limits assumed): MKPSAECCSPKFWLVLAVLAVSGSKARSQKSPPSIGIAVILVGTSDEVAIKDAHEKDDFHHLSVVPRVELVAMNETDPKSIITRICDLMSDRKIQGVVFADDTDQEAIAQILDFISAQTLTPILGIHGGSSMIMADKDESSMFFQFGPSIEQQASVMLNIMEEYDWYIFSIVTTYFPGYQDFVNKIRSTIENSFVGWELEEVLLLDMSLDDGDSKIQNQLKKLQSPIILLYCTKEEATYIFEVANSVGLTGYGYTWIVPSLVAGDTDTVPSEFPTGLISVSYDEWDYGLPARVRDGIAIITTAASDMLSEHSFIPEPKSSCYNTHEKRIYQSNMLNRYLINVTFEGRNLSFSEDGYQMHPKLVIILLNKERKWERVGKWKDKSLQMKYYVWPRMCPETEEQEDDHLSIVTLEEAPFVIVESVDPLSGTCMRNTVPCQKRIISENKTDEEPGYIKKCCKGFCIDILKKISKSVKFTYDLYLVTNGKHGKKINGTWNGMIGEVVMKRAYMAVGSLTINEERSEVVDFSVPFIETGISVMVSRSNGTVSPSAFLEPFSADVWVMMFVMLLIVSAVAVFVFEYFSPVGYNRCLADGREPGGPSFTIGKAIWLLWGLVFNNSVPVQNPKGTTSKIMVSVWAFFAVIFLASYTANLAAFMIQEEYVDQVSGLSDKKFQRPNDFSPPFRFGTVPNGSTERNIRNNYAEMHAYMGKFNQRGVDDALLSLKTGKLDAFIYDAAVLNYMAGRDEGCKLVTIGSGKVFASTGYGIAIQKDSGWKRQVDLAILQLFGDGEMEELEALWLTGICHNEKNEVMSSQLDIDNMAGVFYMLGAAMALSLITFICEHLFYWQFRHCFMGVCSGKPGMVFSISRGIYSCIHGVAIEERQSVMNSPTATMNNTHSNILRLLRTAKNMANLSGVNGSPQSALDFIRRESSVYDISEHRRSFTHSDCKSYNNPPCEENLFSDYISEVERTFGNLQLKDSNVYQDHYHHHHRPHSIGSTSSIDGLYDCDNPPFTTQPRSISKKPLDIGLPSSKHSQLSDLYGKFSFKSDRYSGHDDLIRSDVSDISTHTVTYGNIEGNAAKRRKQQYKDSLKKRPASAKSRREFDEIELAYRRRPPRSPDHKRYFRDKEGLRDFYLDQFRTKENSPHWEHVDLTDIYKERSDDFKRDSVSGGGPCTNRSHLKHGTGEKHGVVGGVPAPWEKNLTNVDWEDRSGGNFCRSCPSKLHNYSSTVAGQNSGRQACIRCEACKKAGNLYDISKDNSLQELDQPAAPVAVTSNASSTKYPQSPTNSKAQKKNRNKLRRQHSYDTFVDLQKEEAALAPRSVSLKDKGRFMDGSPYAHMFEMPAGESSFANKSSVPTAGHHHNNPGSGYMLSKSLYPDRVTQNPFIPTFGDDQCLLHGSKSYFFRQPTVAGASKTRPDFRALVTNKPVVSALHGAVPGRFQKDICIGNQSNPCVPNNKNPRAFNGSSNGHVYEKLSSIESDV
# Experimental: For in vitro binding experiments, equimolar amounts of in vitro translated ³⁵S-labeled proteins (calculated from radioactivity of the excised protein band and cysteine content in the specific fragment) were incubated with a 3-fold molar excess of translated RasGRF1 for 30 min at 30° C., diluted with RIPA buffer, and immunoprecipitated with anti-HA-agarose (Santa Cruz). In competition experiments, RasGRF1 and NR2B were immunoprecipitated for 2 hr at 4° C. from solubilized rat brain microsomes in the presence of 10 μM NusA, 10 μM NusA-RasGRF1-BD, or 5 μM NusA-NR2B-BD.
# [2] = target: T2, GFP rat NR2A (expressed in HEK293T cells) (rat, UniProt Q00959 23-1464); assay: co-immunoprecipitation from co-transfected HEK293T cells
# T2 construct: whole, on cells; not shown: GFP
# T2 sequence (Q00959 23-1464): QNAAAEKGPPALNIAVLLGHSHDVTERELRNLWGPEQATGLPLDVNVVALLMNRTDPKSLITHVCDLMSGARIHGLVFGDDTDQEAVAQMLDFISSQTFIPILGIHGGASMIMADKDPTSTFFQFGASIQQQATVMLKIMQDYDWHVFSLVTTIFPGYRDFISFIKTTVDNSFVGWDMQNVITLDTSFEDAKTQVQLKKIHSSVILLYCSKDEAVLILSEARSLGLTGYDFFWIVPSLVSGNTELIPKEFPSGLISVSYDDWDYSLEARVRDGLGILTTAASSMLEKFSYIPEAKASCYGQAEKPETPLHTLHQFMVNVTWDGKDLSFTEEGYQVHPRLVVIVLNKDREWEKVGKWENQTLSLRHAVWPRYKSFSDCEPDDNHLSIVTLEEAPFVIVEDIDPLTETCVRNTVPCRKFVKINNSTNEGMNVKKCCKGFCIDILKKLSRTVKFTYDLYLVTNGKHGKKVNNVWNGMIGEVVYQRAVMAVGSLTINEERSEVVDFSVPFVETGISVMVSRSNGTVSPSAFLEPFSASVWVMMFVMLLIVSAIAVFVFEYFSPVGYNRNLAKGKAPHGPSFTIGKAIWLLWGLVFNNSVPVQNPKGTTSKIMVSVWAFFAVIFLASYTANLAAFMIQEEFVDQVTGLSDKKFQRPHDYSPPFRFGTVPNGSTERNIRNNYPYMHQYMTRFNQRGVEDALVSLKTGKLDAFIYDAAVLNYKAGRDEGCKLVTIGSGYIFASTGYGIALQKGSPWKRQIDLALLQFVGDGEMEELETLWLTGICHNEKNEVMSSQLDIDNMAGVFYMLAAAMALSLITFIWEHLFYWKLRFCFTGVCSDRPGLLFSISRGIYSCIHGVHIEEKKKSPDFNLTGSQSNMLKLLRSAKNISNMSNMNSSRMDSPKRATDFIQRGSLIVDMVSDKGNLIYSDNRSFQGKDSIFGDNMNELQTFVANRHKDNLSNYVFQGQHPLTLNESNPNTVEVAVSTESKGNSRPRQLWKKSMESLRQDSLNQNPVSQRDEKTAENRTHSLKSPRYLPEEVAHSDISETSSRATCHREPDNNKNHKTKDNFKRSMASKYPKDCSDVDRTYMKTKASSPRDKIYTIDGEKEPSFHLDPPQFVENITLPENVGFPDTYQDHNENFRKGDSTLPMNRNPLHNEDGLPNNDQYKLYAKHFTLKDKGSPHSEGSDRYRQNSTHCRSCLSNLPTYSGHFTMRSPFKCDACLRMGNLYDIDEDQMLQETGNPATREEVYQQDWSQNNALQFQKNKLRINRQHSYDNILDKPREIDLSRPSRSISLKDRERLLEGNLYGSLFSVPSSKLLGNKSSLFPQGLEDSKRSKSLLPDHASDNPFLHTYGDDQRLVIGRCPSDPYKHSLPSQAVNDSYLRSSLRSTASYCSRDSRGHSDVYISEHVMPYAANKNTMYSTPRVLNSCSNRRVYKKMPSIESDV
# Experimental: Transfected cells were solubilized in lysis buffer (100 mM Tris-Cl [pH 8.5], 500 mM NaCl, 1% Triton X-100) supplemented with corn plete protease inhibitor (Roche) and immunoprecipitated with NR2B (Santa Cruz, sc-9057), NR1, or NR2A (Chemicon) antibody (5 μg/ml), washed with lysis buffer, separated on SDS gel, and blotted on PVDF. Blots were probed with anti-RasGRF1 (Santa Cruz) and the appropriate NR subunit antibody. 6- to 8-week-old rat brain P2 microsomes were isolated and solubilized as described (Luo, J., et al. (1997) Mol. Pharmacol. 51, 79-86). 80 μg of solubilized protein were immunoprecipitated with NR2B, RasGRF1, or pooled rabbit IgG, and immunoprecipitated proteins were probed on Western blot with RasGRF1 and NR2B antibodies. All immunoprecipitation experiments were only taken as valid if repeated 3-5 times with similar results. Routine negative controls with antigen pre-absorption were carried out for antibodies used in immunoprecipitation experiments. Also, all immunoprecipitating antibodies were tested for the cross-reactivity with in vitro translated co-immunoprecipitated molecules.
# [3] = target: B1; assay: co-immunoprecipitation of in vitro translated proteins with AU1 antibody
binding result [1],Binder,also measured
no binding,"HA-tagged RasGRF1 fragment, amino acids 835-913 (other, In vitro translated, 35S-labelled; not shown: HA tag encoded by the 5' primer) TPKSFRNRITQEFPLFNYNSGIMMTCRDLMDSNRSPLSATSAFAIATAGANESPANKEIYRRMSLANTGYSSDQRNIDK",–
no binding,"HA-tagged RasGRF1 fragment, amino acids 714-841 (other, In vitro translated, 35S-labelled; not shown: HA tag encoded by the 5' primer) RASRKFSSPPPLAIGTSSPVRRRKLSLNIPIITGGKALELASLGCPSDGYTNIHSPISPFGKTTLDTSKLCVASSLTRTPEEIDMTTLEESSGFRKPTSDILKEESDDDQSDVDDTEVSPPTPKSFRN",–
no binding,"HA-tagged RasGRF1 fragment, amino acids 1-720 (other, In vitro translated, 35S-labelled; also called N-terminal portion of RasGRF1; not shown: HA tag encoded by the 5' primer) MQKAIRLNDGHVVSLGLLAQRDGTRKGYLSKRSSDNPKWQTKWFALLQNLLFYFESDSSSRPSGLYLLEGSICKRMPSPKRGTSSKESDKQHHYFTVNFSNDSQKSLELRTDDSKDCDEWVAAIARASYKILATEHEALMQKYLHLLQVVETEKTVAKQLRQQLEDGEVEIERLKAEIANLIKDNERIQSNQLVAPEDEDSDIKKIKKVQSFLRGWLCRRKWKNIIQDYIRSPHADSMRKRNQVVFSMLEAEAEYVQQLHILVNNFLRPLRMAASSKKPPITHDDVSSIFLNSETIMFLHQIFYQGLKARIASWPTLVLADLFDILLPMLNIYQEFVRNHQYSLQILAHCKQNRDFDKLLKQYEAKPDCEERTLETFLTYPMFQIPRYILTLHELLAHTPHEHVERNSLDYAKSKLEELSRVMHDEVSETENIRKNLAIERMITEGCEILLDTSQTFVRQGSLIQVPMSEKGKINKGRLGSLSLKKEGERQCFLFSKHLIICTRGSGSKLHLTKNGVISLIDCTLLDDPENMDDDGKGQEVDHLDFKIWVEPKDSPPFTVILVASSRQEKAAWTSDIIQCVDNIRCNGLMMNAFEENSKVTVPQMIKSDASLYCDDVDIRFSKTMNSCKVLQIRYASVERLLERLTDLRFLSIDFLNTFLHSYRVFTDAVVVLDKLISIYKKPITAIPARSLELLFSSSHNTKLLYGDAPKSPRASRKFS",–
–,B1,binding result [2]: no binding
–,"AU1-tagged NR2B fragment, amino acids 1136-1310 (other, In vitro translated, 35S-labelled; also called distal portion of the bait; not shown: AU1 tag encoded by the 5' primer) QFRTKENSPHWEHVDLTDIYKERSDDFKRDSVSGGGPCTNRSHLKHGTGEKHGVVGGVPAPWEKNLTNVDWEDRSGGNFCRSCPSKLHNYSSTVAGQNSGRQACIRCEACKKAGNLYDISKDNSLQELDQPAAPVAVTSNASSTKYPQSPTNSKAQKKNRNKLRRQHSYDTFVDL",binding result [3]: no binding
